Format in all cases: binding
For one assay, the target named is T1, FOXO1 (Homo sapiens, UniProt Q12778).
T1 construct: host or cells: 293T HEK cells
Put plainly: Co-immunoprecipitation of Fx with known 14-3-3θ partner FOXO1. Particulars: data not shown.

In assay [1] the target is T2, YES-associated protein (YAP) (Homo sapiens, UniProt P46937).
T2 construct: host or cells: 293T HEK cells
Put plainly: Co-immunoprecipitation of Fx with known 14-3-3θ partner YAP. Particulars: data not shown.

A further assay concerns the target T3, TDP-43 (Homo sapiens, UniProt Q13148).
T3 construct: expressed in transfected cells; host or cells: 293T HEK cells
The assay is described as follows: Co-immunoprecipitation of Fx (α-helix 6 of 14-3-3θ) with TDP-43. Particulars: Fx expressed in cells, FIG. 5. The method, then:
Immunoprecipitation. Immunoprecipitation was performed as previously described (Ittner et al., 2009, J Biol Chem 284: 20909-20916). Briefly, 293T HEK cells were co-transfected with variants of TDP-43 in pcDNA3.1/V5 and/or 14-3-3 isoforms/variants. Cells were lysed in RIPA buffer. Equal amounts of proteins were incubated overnight with 1 ul of V5 antibody (Life Technologies) and precipitated using magnetic Protein G beads (Life Technologies). Co-immunoprecipitation was further confirmed by Western blotting using myc antibodies.
Western blotting. Western blotting was performed as previously described (Ke et al., 2012, PLoS One 7: e35678). Primary antibodies used for immunoblotting were human TDP-43, c-terminal TDP-43, pan-TDP-43 (Proteintech), 14-3-3θ (Abeam), V5, myc (Life Technologies), phospho-TDP-43 S409/410 (Cosmobio), GAPDH (Merck-Millipore).
Cell culture and staining. All immunorecipitation experiments were carried out in 293T HEK cells. Cells were maintained in DMEM containing 10% fetal bovine serum (FBS) as per standard protocols. SH-SY5Y cells were maintained in DMEM/F-12 containing 10% FBS and used for 14-3-3θ overexpression or knockdown. Stable overexpression and knockdown of 14-3-3θ were achieved through lentiviral transduction. For immunocytochemistry, cells were fixed in 4% PFA and blocked with 3% heat-inactivated goat serum/2% BSA. […]

T3 sequence (Q13148 whole entry): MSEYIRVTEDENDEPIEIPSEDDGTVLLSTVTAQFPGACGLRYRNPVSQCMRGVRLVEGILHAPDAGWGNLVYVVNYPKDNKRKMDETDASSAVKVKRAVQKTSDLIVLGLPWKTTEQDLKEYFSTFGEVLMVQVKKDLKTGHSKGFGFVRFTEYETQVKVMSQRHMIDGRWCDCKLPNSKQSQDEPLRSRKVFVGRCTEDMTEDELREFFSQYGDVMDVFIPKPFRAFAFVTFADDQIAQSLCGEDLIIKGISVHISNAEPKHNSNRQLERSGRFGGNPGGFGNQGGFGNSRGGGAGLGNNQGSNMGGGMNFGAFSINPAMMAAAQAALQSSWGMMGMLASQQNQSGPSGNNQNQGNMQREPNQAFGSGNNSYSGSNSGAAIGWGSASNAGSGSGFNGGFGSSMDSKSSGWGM
T2 sequence (P46937 whole entry): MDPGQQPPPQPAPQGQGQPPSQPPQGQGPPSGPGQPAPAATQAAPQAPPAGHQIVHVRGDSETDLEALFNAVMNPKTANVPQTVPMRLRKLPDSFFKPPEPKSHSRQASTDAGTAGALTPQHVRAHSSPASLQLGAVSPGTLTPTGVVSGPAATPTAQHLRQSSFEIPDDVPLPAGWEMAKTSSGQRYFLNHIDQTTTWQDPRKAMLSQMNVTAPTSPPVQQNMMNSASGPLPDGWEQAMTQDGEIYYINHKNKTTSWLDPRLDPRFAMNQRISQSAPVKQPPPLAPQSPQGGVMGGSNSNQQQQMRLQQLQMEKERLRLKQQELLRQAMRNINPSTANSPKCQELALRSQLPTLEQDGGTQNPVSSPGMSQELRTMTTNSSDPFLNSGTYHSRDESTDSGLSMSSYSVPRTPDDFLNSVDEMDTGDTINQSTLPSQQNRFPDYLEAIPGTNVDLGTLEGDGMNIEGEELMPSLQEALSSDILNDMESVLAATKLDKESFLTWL
T1 sequence (Q12778 whole entry, species assumed): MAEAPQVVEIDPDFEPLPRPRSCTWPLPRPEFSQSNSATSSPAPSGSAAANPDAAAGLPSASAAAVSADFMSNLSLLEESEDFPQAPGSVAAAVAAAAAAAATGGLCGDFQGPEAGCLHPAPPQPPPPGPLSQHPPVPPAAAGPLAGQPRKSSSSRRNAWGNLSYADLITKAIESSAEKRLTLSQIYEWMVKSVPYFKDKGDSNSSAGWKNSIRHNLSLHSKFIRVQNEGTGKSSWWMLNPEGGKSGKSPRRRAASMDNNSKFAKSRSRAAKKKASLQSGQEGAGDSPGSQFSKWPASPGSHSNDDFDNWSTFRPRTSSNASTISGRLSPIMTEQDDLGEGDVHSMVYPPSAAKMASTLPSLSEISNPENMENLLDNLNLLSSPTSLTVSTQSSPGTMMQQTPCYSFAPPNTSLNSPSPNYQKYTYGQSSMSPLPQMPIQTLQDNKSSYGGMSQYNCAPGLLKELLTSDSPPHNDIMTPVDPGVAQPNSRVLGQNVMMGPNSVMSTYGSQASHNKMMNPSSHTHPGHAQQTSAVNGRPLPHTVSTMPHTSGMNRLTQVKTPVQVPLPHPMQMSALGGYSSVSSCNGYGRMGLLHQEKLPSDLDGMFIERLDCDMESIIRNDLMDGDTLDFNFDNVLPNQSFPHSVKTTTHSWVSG

With “Fx: construct including only α-helix 6 (αF) of 14-3-3θ, 30 amino acid sequence SEQ ID NO:2 (amino acids 135-164) (GDDRKQTIDNSQGAYQEAFDISKKEMQPTH; V5 tag in some forms; listed as Homo sapiens)”, in the assay with FOXO1, the “pull down of FOXO1” value is on record as “failed to pull down”. Further, the “pull down of YES-associated protein (YAP)” value in assay [1] is given as “failed to pull down”. In the assay with TDP-43, the “co-precipitation of TDP-43” value was “co-precipitated TDP-43”.

Source of the values: patent US12397035B2, “Compositions and methods for treatment” (Celosia Therapeutics Pty Ltd, priority 2019, dated 2025).
